The results in this text go back to publication PMC6331727.

The assay deals with ADP-ribosylation factor-like protein 13B (Arl13b). Put plainly: co-immunoisolation with paramagnetic beads, immunoblot quantification. Particulars: MDCK cells expressing Prom1 or K138Q; n = 3; parent: est. 0.53; read off a plot.

Turning to “Human Prominin-1 (Prom1/CD133), splice variant s2 (from UniProt O43490) K138Q”, the other: Arl13b / Prom1 ratio turned out to be 0.05.
